First the molecules themselves.
B1: Glutaredoxin-3 (Homo sapiens), O76003 (parent)
chain: MAAGAAEAAVAAVEEVGSAGQFEELLRLKAKSLLVVHFWAPWAPQCAQMNEVMAELAKELPQVSFVKLEAEGVPEVSEKYEISSVPTFLFFKNSQKIDRLDGAHAPELTKKVQRHASSGSFLPSANEHLKEDLNLRLKKLTHAAPCMLFMKGTPQEPRCGFSKQMVEILHKHNIQFSSFDIFSDEEVRQGLKAYSSWPTYPQLYVSGELIGGLDIIKELEASEELDTICPKAPKLEERLKVLTNKASVMLFMKGNKQEAKCGFSKQILEILNSTGVEYETFDILEDEEVRQGLKAYSNWPTYPQLYVKGELVGGLDIVKELKENGELLPILRGEN
partner: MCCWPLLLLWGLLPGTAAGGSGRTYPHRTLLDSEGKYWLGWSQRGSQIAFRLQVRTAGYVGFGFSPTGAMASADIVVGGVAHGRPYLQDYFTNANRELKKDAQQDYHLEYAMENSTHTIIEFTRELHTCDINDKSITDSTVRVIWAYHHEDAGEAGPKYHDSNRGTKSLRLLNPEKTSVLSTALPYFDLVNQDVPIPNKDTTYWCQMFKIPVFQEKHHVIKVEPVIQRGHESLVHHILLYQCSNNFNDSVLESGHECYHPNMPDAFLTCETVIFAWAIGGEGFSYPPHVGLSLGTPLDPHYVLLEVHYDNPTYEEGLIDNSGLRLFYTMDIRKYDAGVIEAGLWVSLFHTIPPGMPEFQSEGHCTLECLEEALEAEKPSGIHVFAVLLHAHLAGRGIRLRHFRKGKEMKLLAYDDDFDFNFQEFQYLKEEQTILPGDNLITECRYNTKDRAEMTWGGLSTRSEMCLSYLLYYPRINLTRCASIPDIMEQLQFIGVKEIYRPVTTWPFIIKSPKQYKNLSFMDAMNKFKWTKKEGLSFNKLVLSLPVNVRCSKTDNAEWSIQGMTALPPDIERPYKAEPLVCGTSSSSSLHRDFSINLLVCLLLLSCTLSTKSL
B2: Coiled-coil alpha-helical rod protein 1 (Homo sapiens), Q8TD31 (parent)
chain: MFPPSGSTGLIPPSHFQARPLSTLPRMAPTWLSDIPLVQPPGHQDVSERRLDTQRPQVTMWERDVSSDRQEPGRRGRSWGLEGSQALSQQAEVIVRQLQELRRLEEEVRLLRETSLQQKMRLEAQAMELEALARAEKAGRAEAEGLRAALAGAEVVRKNLEEGSQRELEEVQRLHQEQLSSLTQAHEEALSSLTSKAEGLEKSLSSLETRRAGEAKELAEAQREAELLRKQLSKTQEDLEAQVTLVENLRKYVGEQVPSEVHSQTWELERQKLLETMQHLQEDRDSLHATAELLQVRVQSLTHILALQEEELTRKVQPSDSLEPEFTRKCQSLLNRWREKVFALMVQLKAQELEHSDSVKQLKGQVASLQEKVTSQSQEQAILQRSLQDKAAEVEVERMGAKGLQLELSRAQEARRRWQQQTASAEEQLRLVVNAVSSSQIWLETTMAKVEGAAAQLPSLNNRLSYAVRKVHTIRGLIARKLALAQLRQESCPLPPPVTDVSLELQQLREERNRLDAELQLSARLIQQEVGRAREQGEAERQQLSKVAQQLEQELQQTQESLASLGLQLEVARQGQQESTEEAASLRQELTQQQELYGQALQEKVAEVETRLREQLSDTERRLNEARREHAKAVVSLRQIQRRAAQEKERSQELRRLQEEARKEEGQRLARRLQELERDKNLMLATLQQEGLLSRYKQQRLLTVLPSLLDKKKSVVSSPRPPECSASAPVAAAVPTRESIKGSLSVLLDDLQDLSEAISKEEAVCQGDNLDRCSSSNPQMSS
partner: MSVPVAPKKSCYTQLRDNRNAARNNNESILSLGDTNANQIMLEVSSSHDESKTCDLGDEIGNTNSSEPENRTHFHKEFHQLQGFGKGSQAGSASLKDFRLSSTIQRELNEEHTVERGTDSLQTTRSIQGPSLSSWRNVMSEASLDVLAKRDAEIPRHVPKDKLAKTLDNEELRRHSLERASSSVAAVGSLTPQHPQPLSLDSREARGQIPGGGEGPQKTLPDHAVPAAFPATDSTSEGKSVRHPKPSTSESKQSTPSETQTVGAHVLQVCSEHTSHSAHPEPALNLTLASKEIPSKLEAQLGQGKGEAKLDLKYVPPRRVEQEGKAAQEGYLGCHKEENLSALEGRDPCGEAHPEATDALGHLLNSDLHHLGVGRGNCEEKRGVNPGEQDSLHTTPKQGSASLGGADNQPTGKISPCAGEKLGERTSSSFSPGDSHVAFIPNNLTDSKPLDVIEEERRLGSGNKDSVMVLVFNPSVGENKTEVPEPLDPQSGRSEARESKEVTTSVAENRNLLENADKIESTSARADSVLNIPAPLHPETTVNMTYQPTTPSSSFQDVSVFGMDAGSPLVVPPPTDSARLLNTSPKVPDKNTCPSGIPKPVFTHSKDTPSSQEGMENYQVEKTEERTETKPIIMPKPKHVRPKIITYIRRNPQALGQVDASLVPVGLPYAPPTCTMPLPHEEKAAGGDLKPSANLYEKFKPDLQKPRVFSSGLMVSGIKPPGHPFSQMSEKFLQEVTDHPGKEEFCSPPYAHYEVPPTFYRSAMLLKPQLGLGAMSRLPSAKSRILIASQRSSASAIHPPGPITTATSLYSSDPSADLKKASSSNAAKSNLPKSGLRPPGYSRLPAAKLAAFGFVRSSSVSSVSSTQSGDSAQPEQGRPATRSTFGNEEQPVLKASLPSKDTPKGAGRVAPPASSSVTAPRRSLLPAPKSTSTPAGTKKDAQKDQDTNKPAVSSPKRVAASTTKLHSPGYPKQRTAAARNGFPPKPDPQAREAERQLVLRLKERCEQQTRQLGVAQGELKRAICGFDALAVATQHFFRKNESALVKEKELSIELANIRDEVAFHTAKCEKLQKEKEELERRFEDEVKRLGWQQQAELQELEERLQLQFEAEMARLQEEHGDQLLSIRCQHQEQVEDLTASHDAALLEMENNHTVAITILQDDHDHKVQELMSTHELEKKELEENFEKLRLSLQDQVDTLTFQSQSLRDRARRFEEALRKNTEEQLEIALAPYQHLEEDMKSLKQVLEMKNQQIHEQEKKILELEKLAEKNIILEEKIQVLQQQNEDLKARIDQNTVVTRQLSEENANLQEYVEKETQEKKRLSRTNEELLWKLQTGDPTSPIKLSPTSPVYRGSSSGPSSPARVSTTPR
B3: Coiled-coil alpha-helical rod protein 1 (Homo sapiens), Q8TD31 (parent)
chain: B2 chain
partner: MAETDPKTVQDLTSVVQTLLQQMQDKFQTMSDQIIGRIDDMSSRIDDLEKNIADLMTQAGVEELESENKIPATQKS
B4: Alpha-ketoglutarate-dependent dioxygenase alkB homolog 3 (Homo sapiens), Q96Q83 (parent)
chain: MEEKRRRARVQGAWAAPVKSQAIAQPATTAKSHLHQKPGQTWKNKEHHLSDREFVFKEPQQVVRRAPEPRVIDREGVYEISLSPTGVSRVCLYPGFVDVKEADWILEQLCQDVPWKQRTGIREDITYQQPRLTAWYGELPYTYSRITMEPNPHWHPVLRTLKNRIEENTGHTFNSLLCNLYRNEKDSVDWHSDDEPSLGRCPIIASLSFGATRTFEMRKKPPPEENGDYTYVERVKIPLDHGTLLIMEGATQADWQHRVPKEYHSREPRVNLTFRTVYPDPRGAPW
partner: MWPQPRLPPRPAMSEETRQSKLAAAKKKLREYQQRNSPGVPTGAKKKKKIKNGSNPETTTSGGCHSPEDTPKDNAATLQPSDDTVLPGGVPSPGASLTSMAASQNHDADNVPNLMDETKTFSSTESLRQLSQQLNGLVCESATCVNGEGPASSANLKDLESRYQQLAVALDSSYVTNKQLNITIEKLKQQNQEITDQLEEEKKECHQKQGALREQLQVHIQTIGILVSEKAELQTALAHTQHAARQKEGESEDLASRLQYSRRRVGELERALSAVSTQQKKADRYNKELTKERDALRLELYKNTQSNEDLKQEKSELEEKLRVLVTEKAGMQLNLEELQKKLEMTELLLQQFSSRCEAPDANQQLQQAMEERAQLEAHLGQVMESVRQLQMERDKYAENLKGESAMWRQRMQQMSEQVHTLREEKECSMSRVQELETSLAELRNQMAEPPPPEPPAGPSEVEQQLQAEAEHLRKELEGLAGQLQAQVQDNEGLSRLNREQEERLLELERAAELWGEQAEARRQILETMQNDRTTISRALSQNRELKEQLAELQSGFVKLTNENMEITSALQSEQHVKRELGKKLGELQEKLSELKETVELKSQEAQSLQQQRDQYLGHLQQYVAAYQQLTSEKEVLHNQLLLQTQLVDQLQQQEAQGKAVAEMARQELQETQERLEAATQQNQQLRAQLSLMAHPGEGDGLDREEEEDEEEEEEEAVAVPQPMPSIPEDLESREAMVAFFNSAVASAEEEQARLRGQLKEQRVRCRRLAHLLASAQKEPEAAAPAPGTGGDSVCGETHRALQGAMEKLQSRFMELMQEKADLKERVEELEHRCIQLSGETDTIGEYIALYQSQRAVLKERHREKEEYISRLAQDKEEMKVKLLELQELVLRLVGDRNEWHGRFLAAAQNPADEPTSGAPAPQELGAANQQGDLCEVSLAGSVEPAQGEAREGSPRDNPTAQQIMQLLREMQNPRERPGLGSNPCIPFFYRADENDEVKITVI
B5: Zyxin (Homo sapiens), Q15942 (parent)
chain: MAAPRPSPAISVSVSAPAFYAPQKKFGPVVAPKPKVNPFRPGDSEPPPAPGAQRAQMGRVGEIPPPPPEDFPLPPPPLAGDGDDAEGALGGAFPPPPPPIEESFPPAPLEEEIFPSPPPPPEEEGGPEAPIPPPPQPREKVSSIDLEIDSLSSLLDDMTKNDPFKARVSSGYVPPPVATPFSSKSSTKPAAGGTAPLPPWKSPSSSQPLPQVPAPAQSQTQFHVQPQPQPKPQVQLHVQSQTQPVSLANTQPRGPPASSPAPAPKFSPVTPKFTPVASKFSPGAPGGSGSQPNQKLGHPEALSAGTGSPQPPSFTYAQQREKPRVQEKQHPVPPPAQNQNQVRSPGAPGPLTLKEVEELEQLTQQLMQDMEHPQRQNVAVNELCGRCHQPLARAQPAVRALGQLFHIACFTCHQCAQQLQGQQFYSLEGAPYCEGCYTDTLEKCNTCGEPITDRMLRATGKAYHPHCFTCVVCARPLEGTSFIVDQANRPHCVPDYHKQYAPRCSVCSEPIMPEPGRDETVRVVALDKNFHMKCYKCEDCGKPLSIEADDNGCFPLDGHVLCRKCHTARAQT
partner: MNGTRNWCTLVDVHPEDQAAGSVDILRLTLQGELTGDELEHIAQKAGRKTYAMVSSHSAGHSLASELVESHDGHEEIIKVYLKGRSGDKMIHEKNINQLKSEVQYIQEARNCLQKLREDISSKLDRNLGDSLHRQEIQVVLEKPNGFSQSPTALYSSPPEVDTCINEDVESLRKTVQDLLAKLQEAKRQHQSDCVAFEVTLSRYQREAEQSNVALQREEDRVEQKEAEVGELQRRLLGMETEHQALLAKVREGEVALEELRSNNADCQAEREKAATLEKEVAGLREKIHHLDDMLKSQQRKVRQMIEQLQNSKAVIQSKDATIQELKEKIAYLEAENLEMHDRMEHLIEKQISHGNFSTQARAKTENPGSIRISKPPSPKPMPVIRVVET

In one experiment the parent is B1. To be noted: with moxd1_human MOXD1, Q6UVY6.
For the variant P145A, the “effect of a mutation on the interaction” value was “with no effect”.

In the next experiment the parent is B2. To be noted: with mtus2_human MTUS2, Q5JR59.
With W337R, the “effect of a mutation on the interaction” value is listed as “disrupting interaction strength”.

The variants in the next experiment derive from B3. Conditions: with hsbp1_human HSBP1, O75506.
For W337R, the “effect of a mutation on the interaction” value was “disrupting interaction strength”.

Variants of B4 are the subject of another experiment. To be noted: with goga2_human GOLGA2, Q08379.
For the variant R64H, the “effect of a mutation on the interaction” value is “with no effect”.

In another experiment the parent is B5. To be noted: with tuft1_human TUFT1, Q9NNX1.
For R167G, the “effect of a mutation on the interaction” value is “with no effect”.

Source of the values: IntAct's records for PubMed 29892012.
